Data reported in article PMC2613655 (Journal of molecular biology, 2008).

B1: Ydj1 (natural protein, yeast, UniProt P25491 1-409, looked up)
chain: MVKETKFYDILGVPVTATDVEIKKAYRKCALKYHPDKNPSEEAAEKFKEASAAYEILSDPEKRDIYDQFGEDGLSGAGGAGGFPGGGFGFGDDIFSQFFGAGGAQRPRGPQRGKDIKHEISASLEELYKGRTAKLALNKQILCKECEGRGGKKGAVKKCTSCNGQGIKFVTRQMGPMIQRFQTECDVCHGTGDIIDPKDRCKSCNGKKVENERKILEVHVEPGMKDGQRIVFKGEADQAPDVIPGDVVFIVSERPHKSFKRDGDDLVYEAEIDLLTAIAGGEFALEHVSGDWLKVGIVPGEVIAPGMRKVIEGKGMPIPKYGGYGNLIIKFTIKFPENHFTSEENLKKLEEILPPRIVPAIPKKATVDECVLADFDPAKYNRTRASRGGANYDSDEEEQGGEGVQCASQ
B2: SYS (other, yeast, UniProt P25294 1-121, looked up)
chain: MVKETKLYDLLGVSPSANEQELKKGYRKAALKYHPDKPTGDTEKFKEISEAFEILNDPQKREIYDQYGLEAARSGGPSFGPGGPGGAGGAGGFPGGAGGFSGGHAFSNEDAFNIFSQFFGGAGGAQRPRGPQRGKDIKHEISASLEELYKGRTAKLALNKQILCKECEGRGGKKGAVKKCTSCNGQGIKFVTRQMGPMIQRFQTECDVCHGTGDIIDPKDRCKSCNGKKVENERKILEVHVEPGMKDGQRIVFKGEADQAPDVIPGDVVFIVSERPHPNFKRDGDDLIYTLPLSFKESLLGFSKTIQTIDGRTLPLSRVQPVQPSQTSTYPGQGMPTPKNPSQRGNLIVKYKVDYPISLNDAQKRAIDENF
B3: YSY (other, yeast, UniProt P25491 1-105, looked up)
chain: MVKETKFYDILGVPVTATDVEIKKAYRKCALKYHPDKNPSEEAAEKFKEASAAYEILSDPEKRDIYDQFGEDGLSGAGGAGGFPGGGFGFGDDIFSQFFGAGGAQNEDAFNIFSQFFGGSSPFGGADDSGFSFSSYPSGGGAGMGGMPGGMGGMHGGMGGMPGGFRSASSSPTYPEEETVQVNLPVSLEDLFVGKKKSFKIGRKGPHGASEKTQIDIQLKPGWKAGTKITYKNQGDYNPQTGRRKTLQFVIQEKSHKSFKRDGDDLVYEAEIDLLTAIAGGEFALEHVSGDWLKVGIVPGEVIAPGMRKVIEGKGMPIPKYGGYGNLIIKFTIKFPENHFTSEENLKKLEEILPPRIVPAIPKKATVDECVLADFDPAKYNRTRASRGGANYDSDEEEQGGEGVQCASQ
B4: Sis1 (natural protein, yeast, UniProt P25294 1-352, looked up)
chain: MVKETKLYDLLGVSPSANEQELKKGYRKAALKYHPDKPTGDTEKFKEISEAFEILNDPQKREIYDQYGLEAARSGGPSFGPGGPGGAGGAGGFPGGAGGFSGGHAFSNEDAFNIFSQFFGGSSPFGGADDSGFSFSSYPSGGGAGMGGMPGGMGGMHGGMGGMPGGFRSASSSPTYPEEETVQVNLPVSLEDLFVGKKKSFKIGRKGPHGASEKTQIDIQLKPGWKAGTKITYKNQGDYNPQTGRRKTLQFVIQEKSHPNFKRDGDDLIYTLPLSFKESLLGFSKTIQTIDGRTLPLSRVQPVQPSQTSTYPGQGMPTPKNPSQRGNLIVKYKVDYPISLNDAQKRAIDENF

Biological target: the molecule itself
Assay: SAXS

Stoichiometry N, 2:
B1, B2, B3, B4
